In the supplement of paper PMC7125110:
± gives the standard error. For some of these results: This sample holds only a part of the variants without activity.

B1: glmS ribozyme (parent)
chain: AUAAAAGCGCCAGAACUACAGAAAUGUAGUUGACGAGGAGGAGGUUUAUCGAAUUUUCGGCGGAUGCCUCCAAA

Tests used:
Settings in all cases: with glucosamine-6-phosphate
glucosamine-6-phosphate [1] = variants of: B1; experiment: kcat; higher = faster cleavage; RNA array
Procedure, shortened: (§1)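 kobs was derived by fitting per-tile medians to one- or two-exponential decays after normalising signals to baseline and to non-cleaving reference variants. Those signals came from barcoded ribozyme variants transcribed in situ by E. coli RNA polymerase on sequenced MiSeq chips, followed through a hybridised Cy3 probe at 37 °C and imaged over ~14 h. Glucosamine-6-phosphate (40 μM to 10 mM) in HEPES/KCl/Mg(OAc)2 buffer was flowed in. Weighted Michaelis–Menten fits across concentrations then gave kcat and KM.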

glucosamine-6-phosphate [2] = variants of: B1; experiment: self-cleavage kobs at 2500 uM GlcN6P; higher = faster cleavage; RNA array
Procedure, shortened: as §1

glucosamine-6-phosphate [3] = variants of: B1; experiment: self-cleavage kobs at 10000 uM GlcN6P; higher = faster cleavage; RNA array
Procedure, shortened: as §1

glucosamine-6-phosphate [4] = variants of: B1; experiment: KM; higher = weaker cofactor use; RNA array
Procedure, shortened: as §1

glucosamine-6-phosphate [5] = variants of: B1; experiment: self-cleavage kobs at 40 uM GlcN6P; higher = faster cleavage; RNA array
Procedure, shortened: as §1

glucosamine-6-phosphate [6] = variants of: B1; experiment: self-cleavage kobs at 160 uM GlcN6P; higher = faster cleavage; RNA array
Procedure, shortened: as §1

glucosamine-6-phosphate [7] = variants of: B1; experiment: self-cleavage kobs at 640 uM GlcN6P; higher = faster cleavage; RNA array
Procedure, shortened: as §1

Row | Variant | kcat (glucosamine-6-phosphate [1]) | self-cleavage kobs at 2500 uM GlcN6P (glucosamine-6-phosphate [2]) | self-cleavage kobs at 10000 uM GlcN6P (glucosamine-6-phosphate [3]) | KM (glucosamine-6-phosphate [4]) | self-cleavage kobs at 40 uM GlcN6P (glucosamine-6-phosphate [5]) | self-cleavage kobs at 160 uM GlcN6P (glucosamine-6-phosphate [6]) | self-cleavage kobs at 640 uM GlcN6P (glucosamine-6-phosphate [7])
1 | C67G C71U | 2.93e-05 ± 3.2e-06 s⁻¹ | 3.07e-05 ± 8.1e-06 s⁻¹ | 2.63e-05 ± 6.7e-06 s⁻¹ |  |  |  | 
2 | A12G U45A | 0.00242 ± 0.00064 s⁻¹ | 0.000811 ± 0.00014 s⁻¹ | 0.00207 ± 0.00031 s⁻¹ | 3500 ± 1300 µM | 4.21e-05 ± 1.5e-05 s⁻¹ | 0.000103 ± 1.6e-05 s⁻¹ | 0.00041 ± 5.3e-05 s⁻¹
3 | G38A C70A | < 1e-05 s⁻¹ |  |  |  | < 1e-05 s⁻¹ |  | 
4 | G37C C67A | < 1e-05 s⁻¹ |  |  | 2800 ± 950 µM |  | < 1e-05 s⁻¹ | 
5 | A6G U31G | 0.000452 ± 9.7e-05 s⁻¹ | 0.000183 ± 3.2e-05 s⁻¹ | 0.000281 ± 5.8e-05 s⁻¹ | 4990 ± 1600 µM |  |  | 4.67e-05 ± 9.4e-06 s⁻¹
6 | U55C G59A | 0.000118 ± 2.1e-05 s⁻¹ | 3.74e-05 ± 1.1e-05 s⁻¹ | 7.97e-05 ± 1.4e-05 s⁻¹ | 4900 ± 1900 µM |  |  | 
7 | A14U U49G A53U U69G | 6.87e-05 ± 2.3e-05 s⁻¹ | 7.58e-05 ± 2.1e-05 s⁻¹ |  |  |  | 8.99e-05 ± 3.4e-05 s⁻¹ | 
8 | U56G G59A | 5.14e-05 ± 3e-06 s⁻¹ | 3e-05 ± 8.2e-06 s⁻¹ | 4.3e-05 ± 6.1e-06 s⁻¹ | 1920 ± 460 µM |  |  | 
9 | U45A C71G | 0.00102 ± 0.00046 s⁻¹ | 0.00123 ± 0.00059 s⁻¹ | 0.00177 ± 0.00039 s⁻¹ |  | 0.000108 ± 2e-05 s⁻¹ | 0.00023 ± 8.2e-05 s⁻¹ | 0.000442 ± 9.7e-05 s⁻¹
10 | C16A U31C | 0.000468 ± 0.00021 s⁻¹ | 0.000139 ± 2.8e-05 s⁻¹ | 0.000418 ± 0.00011 s⁻¹ |  |  |  | 6.72e-05 ± 1.1e-05 s⁻¹
11 | C50A G59A | < 1e-05 s⁻¹ |  |  |  |  |  | < 1e-05 s⁻¹
12 | U31G C71U | 0.0144 ± 0.0067 s⁻¹ | 0.00836 ± 0.0019 s⁻¹ | 0.0107 ± 0.0016 s⁻¹ |  | 0.000277 ± 3.1e-05 s⁻¹ | 0.000479 ± 8.2e-05 s⁻¹ | 0.00235 ± 0.00045 s⁻¹
13 | G29C U45G | 0.000453 ± 2e-05 s⁻¹ | 0.000159 ± 3.6e-05 s⁻¹ | 0.000319 ± 3.3e-05 s⁻¹ | 4250 ± 400 µM |  |  | 6.1e-05 ± 1.6e-05 s⁻¹
14 | A6U A53G | 0.000783 ± 0.00011 s⁻¹ | 0.000178 ± 2.2e-05 s⁻¹ | 0.000404 ± 8.1e-05 s⁻¹ | 8850 ± 1500 µM |  |  | 5.15e-05 ± 9e-06 s⁻¹
15 | A15U C61A | < 1e-05 s⁻¹ |  |  | 829 ± 70 µM | < 1e-05 s⁻¹ |  | 
16 | G29C C67G | 8e-05 ± 4.8e-06 s⁻¹ | 4.84e-05 ± 1.1e-05 s⁻¹ | 7.18e-05 ± 1.4e-05 s⁻¹ | 1430 ± 280 µM |  |  | 
17 | A12G G40A | 0.000633 ± 0.00014 s⁻¹ | 0.000218 ± 2.3e-05 s⁻¹ | 0.000486 ± 6.3e-05 s⁻¹ | 4040 ± 1300 µM |  | 1.6e-05 ± 7.3e-06 s⁻¹ | 9.61e-05 ± 8.9e-06 s⁻¹

Row | Variant | kcat (glucosamine-6-phosphate [1]) | self-cleavage kobs at 2500 uM GlcN6P (glucosamine-6-phosphate [2]) | self-cleavage kobs at 10000 uM GlcN6P (glucosamine-6-phosphate [3]) | KM (glucosamine-6-phosphate [4]) | self-cleavage kobs at 40 uM GlcN6P (glucosamine-6-phosphate [5]) | self-cleavage kobs at 160 uM GlcN6P (glucosamine-6-phosphate [6]) | self-cleavage kobs at 640 uM GlcN6P (glucosamine-6-phosphate [7])
18 | G37C A42G | 7.11e-05 ± 9.9e-06 s⁻¹ | 4.76e-05 ± 1.3e-05 s⁻¹ | 5.87e-05 ± 1e-05 s⁻¹ |  |  |  | 
19 | U54G U65C | 0.00111 ± 0.0001 s⁻¹ | 0.000567 ± 9.8e-05 s⁻¹ | 0.00091 ± 0.00012 s⁻¹ | 2390 ± 350 µM |  | 7.61e-05 ± 1.2e-05 s⁻¹ | 0.000211 ± 3.4e-05 s⁻¹
20 | G37A A53C | 0.000609 ± 7.9e-05 s⁻¹ | 0.00027 ± 3.6e-05 s⁻¹ | 0.000468 ± 5.8e-05 s⁻¹ | 3030 ± 740 µM |  |  | 0.00012 ± 2.1e-05 s⁻¹
21 | A12U A39C U56G | 0.00242 ± 0.00054 s⁻¹ | 0.00138 ± 0.00027 s⁻¹ | 0.00168 ± 0.00031 s⁻¹ | 3430 ± 1000 µM | 2.75e-05 ± 1e-05 s⁻¹ | 0.000109 ± 1.8e-05 s⁻¹ | 0.000287 ± 0.00011 s⁻¹
22 | C11A G62A | 1.14e-05 ± 2e-06 s⁻¹ |  |  |  |  |  | 
23 | A39U G66C | 0.0109 ± 0.0036 s⁻¹ | 0.00343 ± 0.00096 s⁻¹ | 0.0065 ± 0.001 s⁻¹ | 6420 ± 2800 µM | 5.39e-05 ± 1.3e-05 s⁻¹ | 0.00046 ± 0.00012 s⁻¹ | 0.00112 ± 0.00026 s⁻¹
24 | G37U C70U C71U | 1.13e-05 ± 3.2e-06 s⁻¹ |  |  |  |  |  | 
25 | U49A U55G | 1.38e-05 ± 6.5e-06 s⁻¹ |  |  |  |  |  | 
26 | G40A U56C | 0.000181 ± 2.6e-05 s⁻¹ | 8.42e-05 ± 1.1e-05 s⁻¹ | 0.000157 ± 1.9e-05 s⁻¹ | 2280 ± 720 µM |  |  | 4.68e-05 ± 8.5e-06 s⁻¹
27 | A15U U49G | 9.5e-05 ± 7.9e-06 s⁻¹ | 5.99e-05 ± 8e-06 s⁻¹ | 7.95e-05 ± 8.2e-06 s⁻¹ | 1730 ± 470 µM |  |  | 2.05e-05 ± 9.2e-06 s⁻¹
28 | A14C G44C C67G | 0.00155 ± 0.00052 s⁻¹ | 0.000548 ± 0.00015 s⁻¹ | 0.00139 ± 0.00022 s⁻¹ |  | 3.15e-05 ± 1.2e-05 s⁻¹ |  | 0.000389 ± 0.0001 s⁻¹
29 | A33G G60C | < 1e-05 s⁻¹ |  |  |  |  | < 1e-05 s⁻¹ | < 1e-05 s⁻¹
30 | U55G G66A | 0.0134 ± 0.004 s⁻¹ | 0.00661 ± 0.0022 s⁻¹ | 0.0124 ± 0.002 s⁻¹ | 1790 ± 770 µM | 0.000461 ± 7.7e-05 s⁻¹ | 0.000877 ± 0.00021 s⁻¹ | 0.00303 ± 0.00072 s⁻¹
31 | A6U U54G | 0.000293 ± 3e-05 s⁻¹ | 0.000122 ± 1.5e-05 s⁻¹ | 0.000204 ± 2.5e-05 s⁻¹ | 3960 ± 740 µM |  |  | 3.62e-05 ± 8.4e-06 s⁻¹
32 | U31C C71G | 0.000382 ± 8.8e-05 s⁻¹ | 0.000213 ± 3.5e-05 s⁻¹ | 0.000321 ± 4.9e-05 s⁻¹ | 1970 ± 890 µM |  |  | 9.1e-05 ± 1.5e-05 s⁻¹
33 | A39U U46C | 0.0117 ± 0.0022 s⁻¹ | 0.00541 ± 0.0019 s⁻¹ | 0.00883 ± 0.0013 s⁻¹ | 2780 ± 640 µM | 0.000154 ± 1.5e-05 s⁻¹ | 0.000743 ± 0.00014 s⁻¹ | 0.00284 ± 0.00046 s⁻¹
